Measured values reported in article doi:10.1101/2023.09.15.557970 (bioRxiv, 2023).

B1: Notch1 RAMANK (domain or fragment, human, UniProt P46531 1758-2127, looked up)
chain: RKRRRQHGQLWFPEGFKVSEASKKKRREPLGEDSVGLKPLKNASDGALMDDNQNEWGDEDLETKKFRFEEPVVLPDLDDQTDHRQWTQQHLDAADLRMSAMAPTPPQGEVDADCMDVNVRGPDGFTPLMIASCSGGGLETGNSEEEEDAPAVISDFIYQGASLHNQTDRTGETALHLAARYSRSDAAKRLLEASADANIQDNMGRTPLHAAVSADAQGVFQILIRNRATDLDARMHDGTTPLILAARLAVEGMLEDLINSHADVNAVDDLGKSALHWAAAVNNVDAAVVLLKNGANKDMQNNREETPLFLAAREGSYETAKVLLDHFANRDITDHMDRLPRDIAQERMHHDIVRLLDEYNLVRSPQLHGA
B2: Notch4 RAMANK (domain or fragment, human, UniProt Q99466 1472-1833, looked up)
chain: RRRRREHGALWLPPGFTRRPRTQSAPHRRRPPLGEDSIGLKALKPKAEVDEDGVVMCSGPEEGEEVGQAEETGPPSTCQLWSLSGGCGALPQAAMLTPPQESEMEAPDLDTRGPDGVTPLMSAVCCGEVQSGTFQGAWLGCPEPWEPLLDGGACPQAHTVGTGETPLHLAARFSRPTAARRLLEAGANPNQPDRAGRTPLHAAVAADAREVCQLLLRSRQTAVDARTEDGTTPLMLAARLAVEDLVEELIAAQADVGARDKWGKTALHWAAAVNNARAARSLLQAGADKDAQDNREQTPLFLAAREGAVEVAQLLLGLGAARELRDQAGLAPADVAHQRNHWDLLTLLEGAGPPEARHKATP
B3: Notch3 RAMANK (domain or fragment, human, UniProt Q9UM47 1663-2038, looked up)
chain: MVARRKREHSTLWFPEGFSLHKDVASGHKGRREPVGQDALGMKNMAKGESLMGEVATDWMDTECPEAKRLKVEEPGMGAEEAVDCRQWTQHHLVAADIRVAPAMALTPPQGDADADGMDVNVRGPDGFTPLMLASFCGGALEPMPTEEDEADDTSASIISDLICQGAQLGARTDRTGETALHLAARYARADAAKRLLDAGADTNAQDHSGRTPLHTAVTADAQGVFQILIRNRSTDLDARMADGSTALILAARLAVEGMVEELIASHADVNAVDELGKSALHWAAAVNNVEATLALLKNGANKDMQDSKEETPLFLAAREGSYEAAKLLLDHFANREITDHLDRLPRDVAQERLHQDIVRLLDQPSGPRSPPGPHG
B4: Notch2 RAMANK (domain or fragment, human, UniProt Q04721 1699-2076, looked up)
chain: MAKRKRKHGSLWLPEGFTLRRDASNHKRREPVGQDAVGLKNLSVQVSEANLIGTGTSEHWVDDEGPQPKKVKAEDEALLSEEDDPIDRRPWTQQHLEAADIRRTPSLALTPPQAEQEVDVLDVNVRGPDGCTPLMLASLRGGSSDLSDEDEDAEDSSANIITDLVYQGASLQAQTDRTGEMALHLAARYSRADAAKRLLDAGADANAQDNMGRCPLHAAVAADAQGVFQILIRNRVTDLDARMNDGTTPLILAARLAVEGMVAELINCQADVNAVDDHGKSALHWAAAVNNVEATLLLLKNGANRDMQDNKEETPLFLAAREGSYEAAKILLDHFANRDITDHMDRLPRDVARDRMHHDIVRLLDEYNVTPSPPGTVL

Target: Human CSL spanning residues 25-449 (human, UniProt Q06330 25-449)
Experiment: ITC

Chain of Human CSL spanning residues 25-449 (Q06330 25-449): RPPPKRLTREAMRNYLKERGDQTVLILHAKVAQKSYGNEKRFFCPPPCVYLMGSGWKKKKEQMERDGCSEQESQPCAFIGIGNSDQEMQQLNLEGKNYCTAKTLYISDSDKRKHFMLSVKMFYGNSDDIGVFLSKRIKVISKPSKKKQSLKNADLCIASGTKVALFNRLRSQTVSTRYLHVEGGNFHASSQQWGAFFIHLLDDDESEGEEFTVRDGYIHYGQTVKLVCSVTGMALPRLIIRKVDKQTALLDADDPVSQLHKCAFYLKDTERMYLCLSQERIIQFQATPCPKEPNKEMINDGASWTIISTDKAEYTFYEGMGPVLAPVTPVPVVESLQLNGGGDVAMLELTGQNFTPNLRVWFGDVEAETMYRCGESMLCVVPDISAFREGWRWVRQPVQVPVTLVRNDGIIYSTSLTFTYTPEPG

Kd, ≤ 100 nM:
B1
B2
B3
B4
